In experiment [1] the target is SARS-CoV-1 E protein C-terminal PBM (Severe acute respiratory syndrome coronavirus) (UniProt P59637). As to conditions: cited from earlier work.
Experiment [2] has as its target SARS-CoV-2 E protein C-terminal PBM (Severe acute respiratory syndrome coronavirus 2) (UniProt P0DTC4). As to conditions: cited from earlier work.
The target of experiment [3] is recombinant human PALS1 PDZ (residues 255-336) (Homo sapiens, UniProt Q8N3R9). The experiment in a line: biochemical. The class given is binding.
Experiment [4] deals with SARS-CoV-1 E protein PBM (Severe acute respiratory syndrome coronavirus). Description: ITC. In general terms: In ITC the heat of successive injections is recorded.
Experiment [5] concerns the target SARS-CoV-2 E protein PBM (Severe acute respiratory syndrome coronavirus 2). The experiment in a line: ITC.

Drawing on paper PMC8196010 (Communications Biology, 2021), this text covers Kd for four molecules.

No end group written: not given here.

The term Kd denotes the equilibrium constant for the complex coming apart. PALS1 PDZ (from UniProt Q8N3R9): the values for the Kd in experiment [1] and in experiment [2] were 130 µM and 40 µM, respectively. For EGVPDLLV [SARS-CoV-2 PBM], the Kd in experiment [3] was determined as 22.8 ± 1.2 µM. Still for that read-out and setting: the value for SRVPDLLV [SARS-CoV-1 PBM] was 29.6 ± 2.3 µM.

B1: PALS1 255-336, Q8N3R9 (protein)
chain: KIVRIEKARDIPLGATVRNEMDSVIISRIVKGGAAEKSGLLHEGDEVLEINGIEIRGKDVNEVFDLLSDMHGTLTFVLIPSQ
As for B1, the Kd turned out to be 29.6 µM in experiment [4] and 22.8 µM in experiment [5].
